Patent publication US6372892

Molecular target: recombinant human IL-1β (human) (UniProt P01584)
Assay: cell-based or functional assay

UniProt P01584, sequence (P01584 117-269 limits assumed): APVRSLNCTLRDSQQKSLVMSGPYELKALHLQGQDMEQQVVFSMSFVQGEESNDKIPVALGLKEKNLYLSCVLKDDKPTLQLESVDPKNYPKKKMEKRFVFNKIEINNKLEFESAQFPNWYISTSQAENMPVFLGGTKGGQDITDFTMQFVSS

IL-1β induced PGE2 production in human fibroblasts (CCD 1098), PGE2 ELISA; IL-1 Hy2 at 1000 fold excess: 40 to 60 % inhibition
Substance: IL-1 Hy2 (from UniProt Q8WWZ1 1-152) (ligand)
